For assay [1], the target named is AnaRne-GFP (RNase E tagged with GFP at the C-terminus, in situ) (Anabaena PCC 7120) (UniProt Q8YP69). As to the kind of experiment: FRET or BRET. (In general: Bioluminescence resonance energy transfer reports proximity on the nanometre scale.)
The target of assay [2] is His-AnaRneN (N-terminal catalytic domain of Anabaena RNase E) (Anabaena PCC 7120). Put plainly: ITC. (In general: Isothermal titration calorimetry measures the heat released or taken up as one component is titrated into another.)

pKd: −log10 of the molar value.

Sequence of UniProt Q8YP69 (Q8YP69 whole entry, the tested form may be a part): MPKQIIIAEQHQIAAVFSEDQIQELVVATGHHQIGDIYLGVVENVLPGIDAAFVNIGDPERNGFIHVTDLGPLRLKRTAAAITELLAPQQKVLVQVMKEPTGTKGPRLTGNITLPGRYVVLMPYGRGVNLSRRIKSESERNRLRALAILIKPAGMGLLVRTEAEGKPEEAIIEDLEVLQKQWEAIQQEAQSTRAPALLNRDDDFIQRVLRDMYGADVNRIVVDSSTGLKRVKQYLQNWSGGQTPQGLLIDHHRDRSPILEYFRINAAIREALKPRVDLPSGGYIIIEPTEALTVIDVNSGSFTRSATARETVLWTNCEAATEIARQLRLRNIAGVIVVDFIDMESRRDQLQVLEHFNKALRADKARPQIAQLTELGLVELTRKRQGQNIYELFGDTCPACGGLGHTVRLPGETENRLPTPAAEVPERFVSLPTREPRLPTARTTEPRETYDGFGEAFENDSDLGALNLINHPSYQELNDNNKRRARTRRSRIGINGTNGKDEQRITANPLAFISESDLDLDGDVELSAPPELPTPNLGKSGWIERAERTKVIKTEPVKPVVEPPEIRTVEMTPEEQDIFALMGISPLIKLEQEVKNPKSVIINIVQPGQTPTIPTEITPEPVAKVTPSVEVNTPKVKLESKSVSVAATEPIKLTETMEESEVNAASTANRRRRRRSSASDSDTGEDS

As to “AnaRnb-BFP (RNase II tagged with BFP at the C-terminus, in situ) (enzyme)”, the FRET efficiency in assay [1] is 0.7.
The pKd is the negative decadic logarithm of the Kd, by convention in mol/L. In general, stoichiometry N refers to the number of molecules, sites or subunits per partner or assembly. In assay [2], “Alr1240-Strep (Alr1240 with a C-terminal Strep tag fusion) (enzyme)” showed a pKd of 5.56 and a stoichiometry N of 1.
